These results are taken from PMC12218847 (Nature Communications, 2025).

Series [1] concerns the target His-tagged potato StISA1 (residues 48–793) (potato). The series is described as follows: AUC.
The series “AUC” concerns the molecule itself. The series is described as follows: AUC.

On to “His-tagged potato StISA1 (residues 48–793) (enzyme)”, for which the stoichiometry N in series [1] came to 2.

B1: His-tagged maize ZmISA1 (residues 45–789) (enzyme, UniProt O22637 45-789, looked up)
chain: AAARPVAEAVQAEEDDDDDDEEVAEERFALGGACRVLAGMPAPLGATALRGGVNFAVYSSGASAASLCLFAPGDLKADRVTEEVPLDPLLNRTGNVWHVFIHGDQLHGMLYGYRFDGVFAPERGQYYDVSNVVVDPYAKAVVSRGEYGVPAPGGSCWPQMAGMIPLPYNKFDWQGDLPLGYHQKDLVIYEMHLRGFTKHNSSKTKHPGTYIGAVSKLDHLKELGVNCIELMPCHEFNELEYFSSSSKMNFWGYSTINFFSPMARYSSSGIRDSGCGAINEFKAFVREAHKRGIEVIMDVVFNHTAEGNEKGPILSFRGIDNSTYYMLAPKGEFYNYSGCGNTFNCNHPVVREFIVDCLRYWVTEMHVDGFRFDLASILTRGCSLWDPVNVYGSPMEGDMITTGTPLVAPPLIDMISNDPILGNVKLIAEAWDAGGLYQVGQFPHWNVWSEWNGKYRDTVRQFIKGTDGFAGAFAECLCGSPQLYQAGGRKPWHSINFVCAHDGFTLADLVTYNSKYNLSNGEDNRDGENHNLSWNCGEEGEFASLSVRRLRKRQMRNFFVCLMVSQGVPMFYMGDEYGHTKGGNNNTYCHDHYVNYFRWDKKEEQSSDLYRFCRLMTKFRKECESLGLEDFPTSERLKWHGHQPGKPDWSEASRFVAFTMKDETKGEIYVAFNTSHLPVVVGLPERSGFRWEPVVDTGKEAPYDFLTDGLPDRAVTVYQFSHFLNSNLYPMLSYSSIILVLRPDV
As to B1, in the series “AUC”, the “stoichiometry N” value is 2.

B2: His-tagged OsISA1 (amino acids 55–803) (enzyme, Oryza sativa (rice), UniProt D0TZF0 55-803, looked up)
chain: SVASAVEVGVGEDEEEGVEEEEEEVEAVVMPERYALGGACRVLAGMPAPLGATALDGGVNFAVYSAGASAASLCLFTPDDLEADEVTEEVPLDPLFNRTGNVWHVFIEGELHNMLYGYRFDGMFAPHCGQYFDVSNVVVDPYAKAVISRGEYGVPGPGGDCWPQMAGMIPLPYSTFDWQGDLPLRYPQKDLVIYEMHLRGFTKHSSSNVEHPGTYIGAISKLDYLKELGVNCVELMPCHEFNELEYFSCSSKMNFWGYSTINFFSPMIRYSSGGIRNCGRDAINEFKTFVREAHKRGIEVIMDVVFNHTAEGNEKGPILSFRGIDNSTYYMLAPKGEFYNYSGCGNTFNCNHPVVREFIVDCLRYWVTEMHVDGFRFDLASIMTRGCSLWDPVNVYGSPVEGDMTTTGTPLATPPLIDMISNDPILGDVKLIAEAWDAGGLYQVGQFPHWKIWSEWNGKYRDIVRQFIKGTDGFAGGFAECLCGSPHLYQAGGRKPWHSINFVCAHDGFTLADLVTYNKKYNSSNGEDNRDGENHNLSWNCGEEGEFAGLSVKRLRKRQMRNFFVSLMVSQGVPMFYMGDEYGHTKGGNNNTYCHDHYVNYFRWDKKEESSDLQRFCSLMTKFRKQCESLGLADFPTAQRLHWHGHQPGKPDWSETSRFVAFSTKDETKGEIYVAFNASHLPAVVGLPERPGYRWEPLVDTGKPAPYDFLTDDLPDRAHAVHLFSHFLNSNLYPMLSYSSIILELQPDD
Turning to B2, the “stoichiometry N” value in the series “AUC” came to 2.

B3: Arabidopsis AtISA1 (residues 44–783) with C-terminal 6×His-tag (enzyme, UniProt O04196 44-783, looked up)
chain: AKDRRSNEAENIAVVEKPLKSDRFFISDGLPSPFGPTVRDDGVNFSVYSTNSVSATICLISLSDLRQNKVTEEIQLDPSRNRTGHVWHVFLRGDFKDMLYGYRFDGKFSPEEGHYYDSSNILLDPYAKAIISRDEFGVLGPDDNCWPQMACMVPTREEEFDWEGDMHLKLPQKDLVIYEMHVRGFTRHESSKIEFPGTYQGVAEKLDHLKELGINCIELMPCHEFNELEYYSYNTILGDHRVNFWGYSTIGFFSPMIRYASASSNNFAGRAINEFKILVKEAHKRGIEVIMDVVLNHTAEGNEKGPIFSFRGVDNSVYYMLAPKGEFYNYSGCGNTFNCNHPVVRQFILDCLRYWVTEMHVDGFRFDLGSIMSRSSSLWDAANVYGADVEGDLLTTGTPISCPPVIDMISNDPILRGVKLIAEAWDAGGLYQVGMFPHWGIWSEWNGKFRDVVRQFIKGTDGFSGAFAECLCGSPNLYQGGRKPWHSINFICAHDGFTLADLVTYNNKNNLANGEENNDGENHNYSWNCGEEGDFASISVKRLRKRQMRNFFVSLMVSQGVPMIYMGDEYGHTKGGNNNTYCHDNYMNYFRWDKKEEAHSDFFRFCRILIKFRDECESLGLNDFPTAKRLQWHGLAPEIPNWSETSRFVAFSLVDSVKKEIYVAFNTSHLATLVSLPNRPGYRWEPFVDTSKPSPYDCITPDLPERETAMKQYRHFLDANVYPMLSYSSIILLLSPIKDP
As for B3, in the series “AUC”, the “stoichiometry N” value amounted to 2.
